# Test results taken from patent publication US20220332804A1 (CSL INNOVATION, published 2022).
# T1: human C2 P718A (human, UniProt P06681 21-752)
# T1 sequence: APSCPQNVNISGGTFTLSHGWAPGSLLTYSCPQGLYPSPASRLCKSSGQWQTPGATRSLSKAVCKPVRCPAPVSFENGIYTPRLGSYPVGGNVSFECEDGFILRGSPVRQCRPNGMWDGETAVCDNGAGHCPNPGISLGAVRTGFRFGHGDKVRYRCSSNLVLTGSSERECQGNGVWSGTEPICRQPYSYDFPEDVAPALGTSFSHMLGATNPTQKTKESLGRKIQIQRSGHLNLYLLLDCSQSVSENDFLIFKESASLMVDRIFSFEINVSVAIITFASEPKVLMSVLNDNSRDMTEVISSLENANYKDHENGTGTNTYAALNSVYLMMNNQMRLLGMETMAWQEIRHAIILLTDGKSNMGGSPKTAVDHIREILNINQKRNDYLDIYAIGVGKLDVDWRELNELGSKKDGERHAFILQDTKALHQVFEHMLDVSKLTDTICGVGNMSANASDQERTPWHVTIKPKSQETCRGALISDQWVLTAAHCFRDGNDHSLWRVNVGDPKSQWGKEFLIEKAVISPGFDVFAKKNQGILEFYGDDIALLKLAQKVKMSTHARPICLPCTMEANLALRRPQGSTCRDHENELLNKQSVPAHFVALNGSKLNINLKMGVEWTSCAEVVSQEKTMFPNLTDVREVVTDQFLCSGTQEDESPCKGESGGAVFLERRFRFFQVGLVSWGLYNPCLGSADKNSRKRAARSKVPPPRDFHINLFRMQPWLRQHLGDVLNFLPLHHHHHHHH
# T2: human complement C2 (wild type) (human, UniProt P06681 21-752)
# T2 construct: Full-length human C2 (NP_000054) with C-terminal 8x His tag, secreted from Expi293F cells and purified from the supernatant; also called WT; huC2
# T2 sequence: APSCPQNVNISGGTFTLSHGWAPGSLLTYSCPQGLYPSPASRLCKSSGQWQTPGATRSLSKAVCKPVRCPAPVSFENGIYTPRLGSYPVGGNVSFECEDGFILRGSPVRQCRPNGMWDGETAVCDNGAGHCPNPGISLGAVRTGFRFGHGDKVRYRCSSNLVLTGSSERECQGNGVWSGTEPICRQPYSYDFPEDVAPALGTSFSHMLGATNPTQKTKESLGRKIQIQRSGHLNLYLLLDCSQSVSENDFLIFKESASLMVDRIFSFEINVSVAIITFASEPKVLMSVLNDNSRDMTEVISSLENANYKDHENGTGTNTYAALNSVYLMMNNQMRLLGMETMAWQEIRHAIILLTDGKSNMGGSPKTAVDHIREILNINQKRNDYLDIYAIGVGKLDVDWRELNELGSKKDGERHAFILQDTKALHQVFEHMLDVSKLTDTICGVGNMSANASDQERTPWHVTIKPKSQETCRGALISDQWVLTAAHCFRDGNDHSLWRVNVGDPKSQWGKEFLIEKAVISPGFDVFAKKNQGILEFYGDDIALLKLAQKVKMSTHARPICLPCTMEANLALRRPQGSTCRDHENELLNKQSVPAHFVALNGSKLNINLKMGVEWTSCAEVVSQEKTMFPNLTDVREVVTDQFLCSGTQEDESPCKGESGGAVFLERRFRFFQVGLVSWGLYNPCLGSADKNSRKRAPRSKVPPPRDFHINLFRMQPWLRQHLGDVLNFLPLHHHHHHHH
# T3: human C2 E645A (human, UniProt P06681 21-752)
# T3 sequence: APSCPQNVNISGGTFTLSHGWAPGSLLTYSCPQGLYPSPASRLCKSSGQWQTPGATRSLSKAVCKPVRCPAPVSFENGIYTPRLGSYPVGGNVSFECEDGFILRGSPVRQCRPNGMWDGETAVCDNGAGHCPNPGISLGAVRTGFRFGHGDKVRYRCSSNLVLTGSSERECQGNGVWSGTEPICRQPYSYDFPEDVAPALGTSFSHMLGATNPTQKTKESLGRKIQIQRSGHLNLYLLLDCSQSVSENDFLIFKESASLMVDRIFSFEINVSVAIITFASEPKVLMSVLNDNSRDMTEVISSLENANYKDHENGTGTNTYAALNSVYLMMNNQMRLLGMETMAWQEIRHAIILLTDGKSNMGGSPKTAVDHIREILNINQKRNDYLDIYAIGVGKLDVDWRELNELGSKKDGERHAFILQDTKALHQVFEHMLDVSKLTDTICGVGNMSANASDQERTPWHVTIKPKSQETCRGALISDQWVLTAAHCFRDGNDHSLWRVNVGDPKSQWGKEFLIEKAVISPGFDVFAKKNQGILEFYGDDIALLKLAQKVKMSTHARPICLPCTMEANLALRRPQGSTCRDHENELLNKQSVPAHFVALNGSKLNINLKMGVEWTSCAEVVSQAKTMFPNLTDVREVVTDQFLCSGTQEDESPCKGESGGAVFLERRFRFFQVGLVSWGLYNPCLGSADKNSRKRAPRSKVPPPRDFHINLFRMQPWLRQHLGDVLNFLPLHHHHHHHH
# B1: RF16-226 (antibody, human IgG4 S228P, lambda)
# heavy: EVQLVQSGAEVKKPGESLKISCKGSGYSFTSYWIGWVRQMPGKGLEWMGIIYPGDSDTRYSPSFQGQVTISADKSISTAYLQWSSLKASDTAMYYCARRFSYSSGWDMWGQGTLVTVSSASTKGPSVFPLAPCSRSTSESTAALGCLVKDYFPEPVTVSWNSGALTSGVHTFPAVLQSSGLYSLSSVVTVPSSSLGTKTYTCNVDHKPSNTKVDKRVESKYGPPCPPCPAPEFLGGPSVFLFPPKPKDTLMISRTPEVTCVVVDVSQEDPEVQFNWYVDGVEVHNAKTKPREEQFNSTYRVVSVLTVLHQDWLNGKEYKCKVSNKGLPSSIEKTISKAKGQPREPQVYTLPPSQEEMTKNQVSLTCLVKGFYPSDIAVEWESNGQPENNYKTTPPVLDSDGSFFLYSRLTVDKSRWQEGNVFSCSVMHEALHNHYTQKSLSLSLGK
# light: SYELTQPPSVSVSPGQTARITCSGDALTSKYVAWYQQKSGLAPLLVIYEDTRRPSGIPAKFSGSSSGSVATLTISGAHGDDEADYYCYSTDASGHQRVFGGGTKLTVLSQPKAAPSVTLFPPSSEELQANKATLVCLISDFYPGAVTVAWKADGSPVKAGVETTKPSKQSNNKYAASSYLSLTPEQWKSHRSYSCQVTHEGSTVEKTVAPTECS
# notes: pH-dependent anti-C2 antibody from a phage display library; also called WT
# How the values were obtained:
# Test in all cases: SPR, KD relative to WT C2;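 also: biacore SPR at 37 °C, anti-C2 mAbs captured via immobilised goat anti-human IgG, C2 alanine or serine surface mutants as analytes, 1:1 model fitted, double-referenced sensograms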
# human C2 P718A = biological target: T1, human C2 P718A
# [1] = biological target: T2, human complement C2 (wild type)
# human C2 E645A = biological target: T3, human C2 E645A
binder,measurement,setting,value
B1,Fold diff,human C2 P718A,2 fold
same,Fold diff,[1],1 fold
same,Fold diff,human C2 E645A,1 fold
